The values that follow come from US12697350B2, “Methods and compositions for treating a premature termination codon-mediated disorder” (Tevard Biosciences, Inc., priority 2019, dated 2026).

The test system of one data set is Neuro-2a cells. The format is cell-based, mouse. The protocol: FIG. 23 is a graph depicting cell viability from FIG. 22 as measured by flow cytometry at ~48 hours post transfection. Neuro-2a cells were transfected with an expression construct containing the EGFP-R96X-TGA reporter (“GFP-PTC”) and either (i) transfected with an expression construct including the ArgTCA suppressor tRNA #115 (SEQ ID NO: 18) at the indicated copy number on the same construct, or (ii) treated with ataluren at the indicated concentration, (iii) treated with gentamicin at the indication concentration, or (iv) treated with G418 at the indicated concentration. For all experimental conditions, cell culture medium was replaced with fresh medium ~6 hour after transfection and the indicated drugs at the indicated concentrations were added at this point. A reporter containing wildtype GFP without a PTC (“WT-GFP”) was used as a control. “Mock” indicates mock transfected cells. “4×TCG” indicates cells transfected with an expression construct that contains four copies of a wild-type Arg-tRNA with a TCG anticodon and the EGFP-R96X-TGA reporter. Cell viability was assessed by flow cytometry using 7-Amino Actinomycin D (7-AAD), a membrane impermeant dye that is generally excluded from viable cells.
FIG. 34 is a graph depicting cell viability from FIG. 33 as measured by flow cytometry at ~48 hours post transfection. […] Cell viability was assessed by flow cytometry using 7-Amino Actinomycin D (7-AAD), a membrane impermeant dye that is generally excluded from viable cells.
FIG. 36 is a graph depicting cell viability from FIG. 35 as measured by flow cytometry at ~48 hours post transfection. […] Cell viability was assessed by flow cytometry using 7-Amino Actinomycin D (7-AAD), a membrane impermeant dye that is generally excluded from viable cells. […]

Another data set deals with EGFP-R96X-TGA reporter. Kind of data set: PTC readthrough of ArgTCA suppressor tRNA versus nonsense suppression drugs, EGFP-R96X-TGA reporter, Neuro-2a cells (FIGS. 21-22). The conditions noted are these: versus ataluren, gentamicin, G418. The format is cell-based, mouse. As to the method:
FIG. 21 depicts fluorescent images of Neuro-2a cells ~24 hours after transfection with an expression construct containing an EGFP-R96X-TGA reporter (“GFP-PTC”) and either (i) including the ArgTCA suppressor tRNA #115 (SEQ ID NO: 18) at the indicated copy number on the same construct, or (ii) treated with ataluren at the indicated concentration, (iii) treated with gentamicin at the indication concentration, or (iv) treated with G418 at the indicated concentration. For all experimental conditions, cell culture medium was replaced with fresh medium ~6 hours after transfection and the indicated drugs at the indicated concentrations were added at this point. […]
FIG. 22 is a graph depicting percentage of GFP positive cells as measured by flow cytometry at ~48 hours post transfection. […]
Disclosed suppressor tRNAs were tested alongside nonsense suppression drugs translarna (ataluren), gentamicin, and G418 (geneticin). PTC readthrough activity was measured in Neuro-2a cells ~48 hours after transfection with an expression construct containing a CAG:NLS-EGFP (R96X-TGA) reporter (as described in Example 1) and either (i) including an ArgTCA suppressor tRNA at the indicated copy number on the same construct, or (ii) treated with ataluren, (iii) treated with gentamicin, or (iv) treated with G418. […] PTC readthrough activity was measured as the percentage of EGFP positive cells. […]

B1: tRNA-Arg-TCT-2-1-TCA-SUP_no intron (nucleic acid)
chain: GGCTCCGTGGCGCAATGGATAGCGCATTGGACTTCAAATTCAAAGGTTCCGGGTTCGAGTCCCGGCGGAGTCG
modifications: chemistry not fully specified
Regarding B1, the cell viability entry with Neuro-2a cells is recorded as “not accompanied by a decrease in cell viability”. Further, in the data set on EGFP-R96X-TGA reporter, the “PTC readthrough compared with nonsense suppression drugs” value was “far greater readthrough than any of the nonsense suppression drugs”.
